Results as given in the supplement of paper PMC10567573.

B1: RIPK4 (parent)
chain: VSVNAQTLDGRTPLHLAAQRGHYR
B2: C1orf137 (parent)
chain: RQHHHQSSFPGSLPQETNLTLKVC

Variants of: B1
Test: protein stability index of a GFP-peptide fusion (GPS, HEK-293T) (PSI 1-6); higher = more stable
Conditions: c terminus: a fixed tail appended
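Note: lentivirally expressed fusions sorted by FACS into six bins by GFP to DsRed ratio, PSI derived from sequencing read proportions per bin multiplied by bin number.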

Protein stability index of substitutions, site by site:
A17: H 3.27, D 3.33, K 3.41, S 3.34, M 3.31, E 3.22, N 3.38, R 3.11, F 2.26, Y 2.54, P 3.67, C 3.15, L 3.02, T 3.45, W 2.45, Q 3.36, V 3.35, G 3.51, I 2.45
L16: G 3.45, M 3.34, A 3.82, C 3.19, I 3.42, Y 3.45, W 3.09, V 3.5, S 4.04, K 3.88, T 3.64, N 3.97, R 3.96, F 3.11, Q 3.83, E 4.29, H 3.28, P 3.73, D 3.8
Y23: N 4.17, S 3.83, P 4.11, W 3.07, K 4.12, E 4.39, R 4.19, V 4, M 4.03, Q 3.96, A 3.92, I 3.39, F 2.98, T 4.12, G 4.25, D 4.49, H 3.42, L 3.51, C 3.43
A18: F 1.89, I 2.75, D 3.31, E 3.13, M 2.42, H 3.13, P 3.21, S 3.38, V 2.97, C 2.61, Q 3.29, G 3.5, T 3.08, W 2.09, L 2.64, R 3.32, N 3.46, K 2.58, Y 2.19
H15: A 3.79, D 3.93, G 3.08, S 3.74, L 3.24, R 3.89, V 3.2, Y 2.56, E 3.49, M 2.78, P 3.94, Q 4.11, W 2.62, T 3.73, F 2.58, N 3.64, I 2.79, K 3.24, C 3.01
G21: V 2.93, I 2.24, N 2.88, T 2.88, L 2.94, D 2.86, C 2.44, S 2.66, Y 2.81, H 3.26, Q 3.35, M 2.68, P 3.49, R 3.47, A 2.77, F 2.34, W 2.05, E 3.58, K 3.33
Q19: C 2.97, D 3.12, I 2.59, R 4.04, S 3.08, P 2.67, M 2.88, G 3.53, Y 2.63, E 3.18, F 1.94, T 3.58, V 2.28, N 3.41, W 2.12, L 2.52, H 3.27, K 3.95, A 3.44
L14: Y 3.21, W 2.88
H22: A 3.3, P 2.89, I 2.83, S 3.29, Y 2.47, W 2.23, R 4.29, K 3.89, F 2.96, V 3.79, D 3.23, L 2.69, E 3.27, Q 3.56, G 4.53, N 3.48, T 3.57, M 2.96, C 2.98
R20: L 2.13, A 3.02, N 2.71, H 2.53, F 2.14, S 2.65, C 2.69, W 2.5, G 2.96, K 3, V 2.85, E 3.43, P 2.95, Q 3.12, Y 2.41, D 3.62, I 2.58, T 2.85, M 2.29
R24: F 2.41, D 3.3, K 3.11, M 2.87, V 2.43, C 2.2, G 3.1, A 2.81, P 3.08, Q 2.82, E 2.87, T 2.99, N 2.98, I 2.05, L 2.13, Y 2.66, H 2.69, W 2.48, S 3.01

Variants of: B2
Test: as above
Conditions: c terminus: a fixed tail appended

Protein stability index: each site, then its substitutions
S8: E 3.85, A 2.81, C 2.67, H 2.45, I 3.03, F 1.84, K 3.07, D 2.89, G 2.47, L 2.45
R1: S 3.4, V 3.05, N 2.7, P 2.79, E 3.58, L 2.44, Y 2.07, Q 3.44, G 3.69, W 3.5, D 3.79, A 2.7, T 3.12, K 2.88, I 3.28, F 1.63, C 1.97, M 2.87, H 3.2
H3: L 2.34, R 2.88, P 2.77, G 3.11, S 3.36, F 2.04, M 3.25, K 3.31, C 2.54, D 2.87, N 2.75, I 3.06, Q 3.06, V 3.09, Y 2.57, A 2.84, T 3.13, E 3.69
H5: A 3.06, V 3.23, S 2.51, P 2.9, W 2.27, Y 2.85, I 2.66, D 3.36, R 3.64, L 2.73, G 2.81, M 2.63, K 2.34, N 2.91, C 3.25, E 3.97, F 2.33, Q 2.65, T 3.28
S7: F 2.36, T 3.34, G 3.18, K 3.11, P 3.52, N 3.68, I 2.77, R 3.34, C 2.43, H 2.83, E 2.3, Q 3.05, Y 2.54, W 2.43, M 2.43, V 2.89, L 2.79, A 2.71, D 3.23
Q2: N 2.62, K 2.31, D 3.06, T 3.45, M 2.88, L 2.4, H 2.27, A 2.67, G 3.57, Y 2.63, W 2.58, R 3.04, E 2.59, C 2.04, P 2.77, I 2.28, V 2.47, F 3.96, S 2.43
Q6: D 3.39, Y 2.9, M 2.23, E 2.88, G 3.22, T 2.49, H 3.36, A 2.61, V 2.89, R 4.03, F 2.3, W 2.27, S 3.25, I 2.37, C 1.72, N 2.71, P 2.55, K 3.15, L 2.49
H4: Y 2.89, T 3.36, M 2.37, A 2.94, W 2.87, F 2.74, V 2.82, D 3.56, N 3.14, Q 3.9, R 1.94, S 2.96, C 2.87, P 3.19, G 3.52, L 3.13, K 3.26, I 2.34, E 3.15
